Results on four molecules are retold here after patent US20240343803A1 (SHANDONG SIMCERE BIOPHARMACEUTICAL, published 2024).

Like-named read-outs stand apart in the source and are kept apart here.

Broadly, the EC50 is the concentration that produces a half-maximal response. One may read the Kd as the constant that tells how readily two partners part at equilibrium. In general, koff refers to the rate constant with which the complex falls apart. The term kon denotes the second-order rate constant of association. In general, IC50 refers to the concentration that gives 50% inhibition.

Test [1] concerns the target T1, Full-length cynomolgus monkey TIGIT on CHO-K1 cells (CHO-K1 cynomolgus monkey TIGIT) (cynomolgus monkey).
T1 construct: NCBI XP_015300911.1
Briefly: cell binding, CHO-K1 cynomolgus monkey TIGIT. In short, it runs like this: (§1)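 Binding was measured by flow cytometry after a 60-minute, 4° C incubation of the antibodies with 2×10⁵ CHO-K1 cells displaying full-length human or cynomolgus monkey TIGIT. Antibody titration: 12 points, threefold serial dilution from 80 nM, in 1% BSA-PBS.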

The target in test [2] is T2, Fusion protein of extracellular domain of human TIGIT and His-tag (human TIGIT ECD-his) (human).
T2 chain: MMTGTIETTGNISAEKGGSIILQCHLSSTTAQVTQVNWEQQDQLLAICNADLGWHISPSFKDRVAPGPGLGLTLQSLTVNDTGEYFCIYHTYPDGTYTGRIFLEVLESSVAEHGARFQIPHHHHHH
In words: BIAcore. A general note: SPR reads the build-up and loss of mass on a sensor chip optically.

The target of test [3] is T3, Full-length human TIGIT on CHO-K1 cells (CHO-K1 human TIGIT) (human, UniProt Q495A1 22-244).
T3 construct: NCBI XP_024309156.1; the entry includes the signal peptide (limits not recoverable); The strain (high, medium, low) is named under assay; also called high expression strain 1D2; medium expression strain 2D10
T3 sequence: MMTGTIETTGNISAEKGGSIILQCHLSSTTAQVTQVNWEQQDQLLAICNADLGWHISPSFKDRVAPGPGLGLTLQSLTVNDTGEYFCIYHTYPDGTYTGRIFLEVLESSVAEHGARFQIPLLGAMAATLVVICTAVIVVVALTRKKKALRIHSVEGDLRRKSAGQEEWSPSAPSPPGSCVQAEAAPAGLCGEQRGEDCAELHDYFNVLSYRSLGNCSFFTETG
Briefly: cell binding, CHO-K1 human TIGIT high expression strain. In short, it runs like this: as §1

Test [4] deals with T4, Fusion protein of extracellular domain of cynomolgus monkey TIGIT and mouse IgG2a Fc fragment (cynomolgus … (cynomolgus monkey)).
T4 construct: The entry includes the signal peptide (limits not recoverable) and the mouse IgG2a Fc
Briefly: ELISA, cynomolgus monkey TIGIT ECD-mFc. Put shortly:
(§2)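 Antibodies diluted to 13 nM in 1% BSA, then 3-fold serial dilution for 12 concentrations, incubated with milk-blocked plates at 37° C for 1.5-2 h. Bound antibody detected with HRP-labelled secondary antibody (1:5000, 37° C, 1 h) and TMB, stopped with 1M HCl; OD450 nm read.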
(In general: In an ELISA, binding on a coated surface is turned into a signal by an enzyme label.)
Target sequence in this assay (chain, as listed by the source limits assumed): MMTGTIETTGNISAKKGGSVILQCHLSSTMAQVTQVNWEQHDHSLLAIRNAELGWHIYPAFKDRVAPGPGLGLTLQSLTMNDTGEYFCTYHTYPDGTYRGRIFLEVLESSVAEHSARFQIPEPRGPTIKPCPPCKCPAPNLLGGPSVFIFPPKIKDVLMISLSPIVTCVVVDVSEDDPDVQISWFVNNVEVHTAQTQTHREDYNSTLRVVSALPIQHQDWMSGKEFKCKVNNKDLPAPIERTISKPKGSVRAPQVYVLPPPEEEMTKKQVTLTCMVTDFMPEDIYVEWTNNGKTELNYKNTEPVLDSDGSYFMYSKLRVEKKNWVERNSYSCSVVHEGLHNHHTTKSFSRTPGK

In test [5] the target is T5, Fusion protein of extracellular domain of human TIGIT and human IgG1 Fc fragment (human TIGIT ECD-hFc) (human).
T5 construct: The entry includes the signal peptide (limits not recoverable) and the human IgG1 Fc
T5 sequence (chain, as listed by the source limits assumed): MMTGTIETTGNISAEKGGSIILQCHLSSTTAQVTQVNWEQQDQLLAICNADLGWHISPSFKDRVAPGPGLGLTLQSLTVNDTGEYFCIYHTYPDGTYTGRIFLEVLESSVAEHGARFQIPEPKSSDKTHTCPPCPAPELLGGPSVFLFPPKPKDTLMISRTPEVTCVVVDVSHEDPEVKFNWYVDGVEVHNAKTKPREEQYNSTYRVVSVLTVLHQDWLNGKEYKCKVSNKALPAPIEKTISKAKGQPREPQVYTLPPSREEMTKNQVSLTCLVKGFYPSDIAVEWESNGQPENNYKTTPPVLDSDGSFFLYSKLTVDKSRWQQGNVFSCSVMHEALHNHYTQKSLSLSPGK
Briefly: blocking of TIGIT ECD-hFc binding to CHO-K1 CD155 cells. In short, it runs like this:
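Cell-based ELISA on CHO-K1 CD155 cells, cultured overnight, fixed and blocked with 5% skim milk-PBS. Antibodies were premixed for 0.5 h with human TIGIT ECD-hFc (working concentration 30 ng/mL), then added and held at 37° C for 1.5-2 h. Bound TIGIT was detected with HRP secondary antibody (1:5000, 37° C, 1 h) and TMB, read as OD450 nm. IC50 came from the inhibition curves.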

For test [6], the target named is T2, Fusion protein of extracellular domain …. In words: BIAcore; KD ratio to TIGIT-CHI-002.
The target of test [7] is T6, Fusion protein of extracellular domain of human TIGIT and mouse IgG2a Fc fragment (human TIGIT ECD-mFc) (human).
T6 construct: The entry includes the signal peptide (limits not recoverable) and the mouse IgG2a Fc
T6 chain: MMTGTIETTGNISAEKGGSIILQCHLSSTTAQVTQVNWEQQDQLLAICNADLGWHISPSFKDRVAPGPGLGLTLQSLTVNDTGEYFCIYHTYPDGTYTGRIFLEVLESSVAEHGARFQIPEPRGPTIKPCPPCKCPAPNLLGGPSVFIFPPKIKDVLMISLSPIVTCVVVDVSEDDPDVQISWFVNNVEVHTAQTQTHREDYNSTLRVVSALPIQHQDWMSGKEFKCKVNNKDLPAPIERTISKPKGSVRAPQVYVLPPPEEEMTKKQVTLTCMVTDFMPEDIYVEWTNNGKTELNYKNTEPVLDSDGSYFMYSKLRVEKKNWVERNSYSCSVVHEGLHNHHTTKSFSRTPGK
In words: ELISA, human TIGIT ECD-mFc. Put shortly: as §2

Test [8] has as its target T3, Full-length human TIGIT on CHO-K1 cells …. Briefly: FACS; CHO-K1 human TIGIT high expression strain. In short, it runs like this: (§3)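 Binding curves from flow cytometry on CHO-K1 cells bearing full-length human or cynomolgus monkey TIGIT yielded the EC50. A 3-fold, 12-point antibody series starting at 80 nM before the 1:1 mix with cells in 1% BSA-PBS was incubated at 4° C for 60 min.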
On the technique in general: A flow cytometer gives signals particle by particle.

Test [9] shares this target. Briefly: FACS; blocking of Bio-CD155-His binding to CHO-K1 human TIGIT cells. Put shortly:
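Bound ligand was measured by flow cytometry on a BD Canto II, using CHO-K1 cells expressing human TIGIT at 2×10⁵/40 μL in 1% BSA-PBS. Equal volumes of antibody, as a 12-point 3-fold dilution series starting at 210 nM, and biotinylated CD155-His, diluted to 3 μg/mL, were added to the cells and held at 4° C for 60 min. APC-streptavidin (1:1700) was used for detection at 4° C for 40 min. IC50 values were obtained from the inhibition curves.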

The target is the same in test [10]. Briefly: FACS; CHO-K1 human TIGIT low expression strain. In short, it runs like this: as §3
Test [11] has as its target T4, Fusion protein of extracellular domain …. Briefly: ELISA, cynomolgus monkey TIGIT ECD-mFc. The source holds these as a separate data set.
Test [12] concerns the target T3, Full-length human TIGIT on CHO-K1 cells …. Briefly: FACS; CHO-K1 human TIGIT medium expression strain. In short, it runs like this: as §3
In test [13] the target is T7, TIGIT on human PBMCs stimulated by SEA (human, UniProt Q495A1 22-244).
T7 construct: whole, on cells
T7 sequence (looked up): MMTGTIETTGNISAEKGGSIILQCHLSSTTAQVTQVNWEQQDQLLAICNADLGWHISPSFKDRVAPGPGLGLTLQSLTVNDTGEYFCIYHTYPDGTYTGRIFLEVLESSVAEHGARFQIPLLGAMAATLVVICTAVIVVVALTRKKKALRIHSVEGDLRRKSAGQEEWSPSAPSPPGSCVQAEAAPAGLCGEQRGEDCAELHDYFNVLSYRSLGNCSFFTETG
Briefly: FACS; binding to SEA-stimulated human PBMC. The procedure: The fresh human PBMCs (AllCells, PB004-C) were adjusted to a density of 5×10⁵/mL, added with SEA (Toxin Technology, Inc., CAT: AT101) to 100 ng/ml, and cultured at 37° C. with 5% CO₂ for 3 days. The cells were collected 3 days later, washed once with PBS (Hyclone, CAT #SH30256), added with Fc Block (BD, 564220) and then incubated at 4° C. for 10 minutes. After washing twice with PBS, the PBMCs were resuspended to 2×10⁵/50 μL with 1% BSA-PBS. The humanized antibodies were diluted to 80 nM with 1% BSA-PBS (diluted by 3-fold serial dilution for 12 concentration points). The 50 μL cells were then mixed with 50 μL diluted antibodies, and then incubated at 4° C. for 60 minutes. […] After washing twice with PBS, the cell samples were resuspended with 1% BSA-PBS, 100 μL/well and then analyzed by flow cytometry (BD, Canto II).

Test [14] concerns the target T1, Full-length cynomolgus monkey TIGIT on …. Briefly: FACS; CHO-K1 cynomolgus monkey TIGIT. Put shortly: as §3
Test [15] addresses T6, Fusion protein of extracellular domain …. Briefly: FACS; blocking of TIGIT ECD-mFc binding to CHO-K1 CD112 cells. The procedure: The collected CHO-K1 CD112 cells were washed once with PBS (Hyclone, CAT #SH30256) and resuspended to 2×10⁵/40 μL with 1% BSA-PBS. The anti-TIGIT humanized antibodies were diluted to 600 nM with 1% BSA-PBS (diluted by 2.5-fold serial dilution for 12 concentration points). The TIGIT ECD-mFc was diluted with 1% BSA-PBS to 6 μg/mL. The 40 μL cells were then mixed with 40 μL diluted antibodies and 40 μL diluted TIGIT ECD-mFc, and then incubated at 4° C. for 60 minutes. […] The cell samples were washed twice with PBS, resuspended to 100 μL/well with 1% BSA-PBS and then analyzed by flow cytometry (BD, Canto II). […] (f) The binding activity of anti-TIGIT humanized antibodies to human PBMCs detected by FACS.

For test [16] the target is unchanged. Briefly: FACS; blocking of TIGIT ECD-mFc binding to CHO-K1 CD155 cells.
Test [17] deals with T2, Fusion protein of extracellular domain …. Briefly: BIAcore.
Test [18] has as its target T6, Fusion protein of extracellular domain …. In words: ELISA, human TIGIT ECD-mFc.

T1 sequence (chain, as listed by the source limits assumed): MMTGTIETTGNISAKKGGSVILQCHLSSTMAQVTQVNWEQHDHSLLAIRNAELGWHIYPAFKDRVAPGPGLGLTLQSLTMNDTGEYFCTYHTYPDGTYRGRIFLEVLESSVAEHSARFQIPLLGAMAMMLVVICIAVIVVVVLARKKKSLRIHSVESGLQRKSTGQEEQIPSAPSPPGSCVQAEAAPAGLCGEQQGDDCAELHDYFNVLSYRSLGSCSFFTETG

B1: TIGIT-002-H2L3 (antibody, V domains shown)
VH: EVQLQESGPGLVKPSETLSLTCAVSGYSITSDSWNWIRQPPGKKLEWIGYISYSGNTYYNPSLKSRVTISRDTSKNQFSLKLSSVTAADTAVYYCARLDFSNYGGAVDYWGQGTTVTVSS
VL: DIVMTQSPDSLAVSLGERATINCKASQNVRTAVAWYQQKPGQSPKLMIYSASYRYTGVPDRFSGSGSGTDFTLTISSLQAEDVAVYYCQQYYTTPWTFGGGTKVEIK
notes: Humanized anti-TIGIT antibody
For B1, the EC50 in [1] was 0.15 nM; in [3] it was 0.0278 nM; in test [4] it was 0.0337 nM; in test [7] it was 0.0159 nM. In test [2], this molecule yielded a Kd of 0.266 nM. The molecule further displayed a koff in [2] of 0.00107 s⁻¹. This molecule showed a kon in [2] of 4.03e+06 M⁻¹ s⁻¹. Further, the IC50 in test [5] stood at 0.54 nM. Moreover, the “Fold change vs chimeric antibodies (KD)” value in test [6] amounted to 6.3 fold.

B2: TIGIT-002-H1L3 (antibody, V domains shown)
VH: EVQLQESGPGLVKPSETLSLTCAVSGYSITSDSWNWIRQPPGKGLEWIGYISYSGNTYYNPSLKSRVTISRDTSKNQFSLKLSSVTAADTAVYYCARLDFSNYGGAVDYWGQGTTVTVSS
VL: DIVMTQSPDSLAVSLGERATINCKASQNVRTAVAWYQQKPGQSPKLMIYSASYRYTGVPDRFSGSGSGTDFTLTISSLQAEDVAVYYCQQYYTTPWTFGGGTKVEIK
notes: Humanized anti-TIGIT antibody
B2: the half-maximal effective concentration (EC50) amounted to 0.143 nM in [1], 0.0253 nM in test [3], 0.0511 nM in test [4] and 0.0157 nM in [7]. Besides, in test [2], the Kd is 0.271 nM. Moreover, the koff in test [2] was 0.000973 s⁻¹. In test [2], the kon came out at 3.59e+06 M⁻¹ s⁻¹. Moreover, in test [5], the concentration for half-maximal inhibition (IC50) was 0.395 nM. The “Fold change vs chimeric antibodies (KD)” value in test [6] is 6.44 fold.

B3: TIGIT-002-H3L3 (antibody, V domains shown)
VH: EVQLQESGPGLVKPSETLSLTCAVSGYSITSDSWNWIRQPPGKKLEWMGYISYSGNTYYNPSLKSRITISRDTSKNQFSLKLSSVTAADTAVYYCARLDFSNYGGAVDYWGQGTTVTVSS
VL: DIVMTQSPDSLAVSLGERATINCKASQNVRTAVAWYQQKPGQSPKLMIYSASYRYTGVPDRFSGSGSGTDFTLTISSLQAEDVAVYYCQQYYTTPWTFGGGTKVEIK
notes: Humanized anti-TIGIT antibody
Consider B3, for which the EC50 in test [1] is 0.0919 nM; in test [3], 0.0361 nM; in test [4], 0.022 nM; in test [7], 0.0173 nM. Also, the Kd in test [2] worked out at 0.188 nM. Moreover, the koff in test [2] amounted to 0.000852 s⁻¹. Also, the kon in test [2] was found to be 4.52e+06 M⁻¹ s⁻¹. Further, the half-maximal inhibitory concentration (IC50) in test [5] is 0.339 nM. In [6], the “Fold change vs chimeric antibodies (KD)” value stood at 4.47 fold.

B4: RG6058-hIgG1 (antibody, V domains shown)
VH: EVQLQQSGPGLVKPSQTLSLTCAISGDSVSSNSAAWNWIRQSPSRGLEWLGKTYYRFKWYSDYAVSVKGRITINPDTSKNQFSLQLNSVTPEDTAVFYCTRESTTYDLLAGPFDYWGQGTLVTVSS
VL: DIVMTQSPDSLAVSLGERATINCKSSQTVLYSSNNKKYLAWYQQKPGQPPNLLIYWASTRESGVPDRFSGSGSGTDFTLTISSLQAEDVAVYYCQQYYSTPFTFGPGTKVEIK
notes: Control anti-TIGIT antibody, human IgG1; also called Roche RG6058
In the case of B4, the EC50 in test [8] was found to be 0.794 nM; in test [10], 0.481 nM; in [11], 0.0486 nM; in [12] it was 0.652 nM; in test [13] it was 0.285 nM; in test [14] it was 2.29 nM. Besides, the EC50 in [18] was determined as 0.0393 nM. Further, the results for the IC50 in test [9], in [15] and in test [16] were 0.334 nM, 6 nM and 0.584 nM, respectively. The affinity in test [17], expressed as Kd, was 0.156 nM. In [17], this molecule registered a koff of 0.000135 s⁻¹. Besides, the kon in [17] worked out at 866000 M⁻¹ s⁻¹.
